The text below walks through data of paper PMC6602146 (Molecules and Cells, 2019).

As a reminder, the stoichiometry N is the number of molecules, sites or subunits per partner or assembly.

The data set concerns the molecule itself. Nature of the data set: crystal structure.

B1: α-carbonic anhydrase from Persephonella marina EX-H1 (enzyme, UniProt C0QRB5 20-243, looked up)
chain: GGGWSYHGEHGPEHWGDLKDEYIMCKIGKNQSPVDINRIVDAKLKPIKIEYRAGATKVLNNGHTIKVSYEPGSYIVVDGIKFELKQFHFHAPSEHKLKGQHYPFEAHFVHADKHGNLAVIGVFFKEGRENPILEKIWKVMPENAGEEVKLAHKINAEDLLPKDRDYYRYSGSLTTPPCSEGVRWIVMEEEMEMSKEQIEKFRKIMGGDTNRPVQPLNARMIMEK
Take B1: the “stoichiometry N” value came to 2.
